target: Dendroides canadensis thermal hysteresis proteins (purified THPs)

Substance | Thermal Hysteresis (°C.) of a 4 mg/ml THP solution [°C.]
Tipula lipoprotein ice-nucleator (LPIN) | 3.49
Gelatin | 3.13
Tipula ice-nucleator protein PIN | 3.98
